Measurements reported in paper PMC10263302.

Biological target: Complex IV (cytochrome c oxidase complex) of T. gondii (Toxoplasma gondii | Toxoplasma gondii (endogenous in the parasites))
Assay: native gel or EMSA

Row | Substance | reduction of the abundance of the complex against the cWT-containing complex (no ATc) [%]
1 | cFLAG-TgApiCox13^H85Q (natural protein) | 45
2 | cFLAG-TgApiCox13^H49Q (natural protein) | 75
